Target: Native Trypsin (abcam)
Assay: cell-based or functional assay

B1: Trypsin 1/Trypsin 2-Dual-L4-Ab5 (antibody, part only; not given: light chain variable domain, V domains shown, part only)
VH: QVQLVQSGAEVKKPGASVKVSCKASGYTFTDYAISWVRQAPGQGLEWMGWISASTADTNYAQKLQGRVTMTTDTSTSTAYMELRSLRSDDTAVYYCARQDEVVGKMTYYIGTDVWGQGTTVTVSS
  IC50 Against 0.25 nM Native Trypsin: 4.8 nM

— patent publication US20260274991A1
